Measurements taken from patent publication US20180037632A1 (BIONTECH, published 2018).
Positions of bridges follow the written chain, without caps; N, C: chain ends. No end group written: not given here.

Columns and labels:
[1] = target: T1, recombinant soluble human Seprase (rhuSeprase) (human, UniProt Q12884 29-760); experiment: SPR (Biacore T-100), rhuSeprase immobilized on CM5, multi cycle kinetics, 1:1 fit
T1 construct: range 29-760; Secreted from CHO-S cells with a mouse Ig kappa secretion signal (not part of the protein in the assay); also called recombinant human Seprase; soluble fraction of human Seprase
T1 sequence: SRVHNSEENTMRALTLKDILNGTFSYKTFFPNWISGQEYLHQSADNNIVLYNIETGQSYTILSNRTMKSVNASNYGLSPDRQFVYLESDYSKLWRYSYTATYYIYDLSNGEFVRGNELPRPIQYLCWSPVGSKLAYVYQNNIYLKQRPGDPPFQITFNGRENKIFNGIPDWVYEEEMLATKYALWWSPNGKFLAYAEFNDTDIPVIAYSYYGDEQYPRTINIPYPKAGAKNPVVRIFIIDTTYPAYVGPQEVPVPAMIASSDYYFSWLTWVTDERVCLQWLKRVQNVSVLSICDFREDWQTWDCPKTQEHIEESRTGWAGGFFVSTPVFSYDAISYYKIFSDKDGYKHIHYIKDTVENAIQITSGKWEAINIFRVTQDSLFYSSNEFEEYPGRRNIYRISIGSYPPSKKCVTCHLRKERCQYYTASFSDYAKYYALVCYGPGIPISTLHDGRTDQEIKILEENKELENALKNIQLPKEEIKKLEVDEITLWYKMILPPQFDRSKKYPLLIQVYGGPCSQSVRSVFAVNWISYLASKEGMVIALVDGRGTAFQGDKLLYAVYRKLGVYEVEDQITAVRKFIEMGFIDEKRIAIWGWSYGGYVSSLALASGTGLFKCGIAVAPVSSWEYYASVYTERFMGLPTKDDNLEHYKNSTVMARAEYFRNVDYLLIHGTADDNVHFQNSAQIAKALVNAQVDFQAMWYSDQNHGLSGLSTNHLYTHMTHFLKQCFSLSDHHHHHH
Protocol: (§1) RhuSeprase (20 μg/ml in PBS, 5% mannitol, 5% trehalose) was immobilized on an amino reactive Series S Sensor Chip CM5 (GE Healthcare). For binding analysis of monomeric Microbodies rhuSeprase was loaded to a maximum of 7500 RU, for oligomeric Microbodies to a maximum of 700 RU. Monomeric Microbodies were measured using a multi cycle kinetic method in a concentration range of 3.125 to 1000 nM based on expected dissociation constant. Association step was measured over a time period of 60-90 seconds, dissociation over 420 seconds. Trimeric Mircobodies were measured using a single cycle kinetics method in a concentration range of 0.3125 to 5 nM (association for 90 seconds, dissociation 420 seconds). Binding kinetics and steady state analysis were calculated using a 1:1 binding model (Biacore T-100 Evaluation Software, GE Healthcare).
(§2) The binding kinetics of monomeric and trimeric Seprase-binding Microbodies was determined using surface plasmon resonance spectroscopy on a Biacore T-100 system.

[2] = target: T1, recombinant soluble human Seprase …; experiment: SPR (Biacore T-100), rhuSeprase immobilized on CM5, steady state analysis, 1:1 fit
Protocol: as §1, §2

[3] = target: T1, recombinant soluble human Seprase …; experiment: SPR (Biacore T100), recombinant human Seprase immobilized, 37-3000 nM MC-FA-010; Seprase on the chip; monovalent MC-FA-010, 37-3000 nM, Biacore T100
Protocol: (§3) To obtain insights of the kinetic binding properties surface plasmon resonance (SPR) analysis was performed on a Biacore T100 device (GE Healthcare). Therefore, rhuSeprase was immobilized onto a CM5 chip via NHS/EDC mediated coupling as described by manufacturer at 10 μl/min for 420 sec. […] Kd values were calculated using the provided software.
(§4) As a next step a more detailed analysis of binding kinetic was performed using surface plasmon resonance technology (SPR). Therefore, recombinant human Seprase was immobilized on a CMS chip (GE Healthcare) with an amino reactive surface. […] Association and dissociation data was fitted and corresponding dissociation constant and kinetic values (Kon, Koff and Kd) was calculated using the provided software of the system (FIGS. 4A and B).

[4] = target: T1, recombinant soluble human Seprase …; experiment: competition ELISA on coated rhuSeprase: free MC-FA-010 (0.64 to 3167 nM) against 3 nM Trx-MC-FA-010, detected with anti-S-Tag-HRP, OD 450 nm
Protocol: (§5) For protein based ELISA analysis 5 μg of the respective recombinant protein (rhuSeprase; streptavidin: Sigma; DPP-IV: R&D Systems, BSA: Eurobio) were immobilized per well of a MaxiSorp™ plate (Nunc) by overnight incubation in coating buffer at 4° C. After washing thrice with 300 μl PBS-T/well on a Hydrospeed plate washer (Tecan) the wells were blocked with 1×Casein solution (Sigma, diluted in PBS) for 2 h at RT. Subsequently, the wells were washed as indicated above. 100 μl of the respective Trx-miniprotein fusion diluted in PBS-T was then added and incubated for 1 h at 4° C. […] For competition ELISAs a fixed concentration of 3 nM Trx-miniprotein fusion was mixed with varying concentration (0.64-3167 nM) of solitary miniprotein before incubation. Binding of the Trx-fusion was detected after a PBS-T washing procedure using HRP coupled anti S-tag antibody as described above. Apparent Kd was calculated using Sigmaplot 10 and an one site saturation binding model for fitting of the data.
Detection of bound miniprotein was achieved via anti S-Tag-HRP conjugated antibody (S-tag is provided by thioredoxin fusion expression system, FIG. 3A). EC₅₀ values were calculated using the one-site-saturation binding model in Sigma plot 10.

[5] = target: T1, recombinant soluble human Seprase …; experiment: SPR (Biacore T100), rhuSeprase immobilised, MC-FA-010 at 37, 111,11, 333,33, 1000 and 3000 nM, global fit; Rmax 316,6 RU; Chi² 9,42 RU²; U-value 1
Protocol: as §3, §4

[6] = target: T1, recombinant soluble human Seprase …; experiment: direct ELISA on coated rhuSeprase; binding relative to the parental Trx-MC-FA-010
Protocol: as §5

[7] = target: T1, recombinant soluble human Seprase …; experiment: direct ELISA on coated rhuSeprase, Trx fusion detected with anti-S-tag-HRP; apparent KD from one site saturation fit; Error 3,63; R2 0,9974
Protocol: as §5

[8] = target: T1, recombinant soluble human Seprase …; experiment: direct ELISA on coated rhuSeprase, Trx fusion detected with anti-S-tag-HRP; apparent KD from one site saturation fit; Error 7,6; R2 0,9962
Protocol: as §5

[9] = target: T1, recombinant soluble human Seprase …; experiment: direct ELISA on coated rhuSeprase, Trx fusion detected with anti-S-tag-HRP; apparent KD from one site saturation fit; Error 64,43; R2 0,9863
Protocol: as §5

[10] = target: T1, recombinant soluble human Seprase …; experiment: SPR (Biacore T-100)
Protocol: as §1, §2

[11] = target: T1, recombinant soluble human Seprase …; experiment: SPR (Biacore T-100), rhuSeprase immobilized on CM5, single cycle kinetics, 1:1 fit
Protocol: as §1, §2

[12] = target: T2, human Seprase, full length, on cells (human, UniProt Q12884 1-760); experiment: FACS-based competition on CHO-K1-huSeprase cells, competitor Trx-MC-FA-012 detected with anti-H6-PE
T2 construct: whole, on cells; also called CHO-K1-Seprase; CHO-K1-huSeprase
T2 sequence (looked up): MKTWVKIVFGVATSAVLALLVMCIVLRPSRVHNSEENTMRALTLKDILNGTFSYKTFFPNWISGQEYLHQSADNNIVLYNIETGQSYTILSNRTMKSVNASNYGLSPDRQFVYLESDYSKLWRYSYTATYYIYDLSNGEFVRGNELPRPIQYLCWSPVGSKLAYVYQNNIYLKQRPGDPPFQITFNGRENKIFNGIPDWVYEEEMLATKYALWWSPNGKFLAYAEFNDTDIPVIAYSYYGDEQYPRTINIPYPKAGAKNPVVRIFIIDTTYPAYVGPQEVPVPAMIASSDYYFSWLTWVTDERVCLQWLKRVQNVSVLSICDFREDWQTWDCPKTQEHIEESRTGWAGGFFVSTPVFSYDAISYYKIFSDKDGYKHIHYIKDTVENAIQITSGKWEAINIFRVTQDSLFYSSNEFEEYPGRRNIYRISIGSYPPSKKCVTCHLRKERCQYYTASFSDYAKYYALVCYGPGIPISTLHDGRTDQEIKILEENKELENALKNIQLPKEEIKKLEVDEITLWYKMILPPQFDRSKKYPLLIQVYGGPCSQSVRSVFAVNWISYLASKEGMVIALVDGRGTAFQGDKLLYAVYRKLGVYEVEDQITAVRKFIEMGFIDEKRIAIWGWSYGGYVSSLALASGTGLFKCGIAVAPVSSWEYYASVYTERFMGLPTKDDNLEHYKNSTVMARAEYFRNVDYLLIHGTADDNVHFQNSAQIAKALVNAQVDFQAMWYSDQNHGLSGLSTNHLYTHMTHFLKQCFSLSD

B1: MC-FA-010 (designed binder)
chain: GKCPYSNWTPGRGPDCRRDSDCPGRCICRGNGYCG
modifications: disulfide (positions not given here)
notes: also called soluble monovalent MC-FA-010; solitary MC-FA-010 miniprotein
[1]
  Kd: 149 nM
  koff: 0.201 s⁻¹
  kon: 1.53e+06 M⁻¹ s⁻¹
[2]
  Kd: 106 nM
[3]
  Kd: ~560 nM
[4]
  IC50: ~20 nM
[5]
  Kd: 562 nM
  koff: 0.151 s⁻¹
  kon: 268000 M⁻¹ s⁻¹

B2: Trx-MC-FA-018 (designed binder)
chain: GKCPYSNWAPGRGPDCRRDSDCPGRCICRGNGYCG
modifications: disulfide 16-28, 22-34, 3-26; also: N-terminal Trx-His6-S-tag fusion carrier, not in chain
notes: the position follows from the order of the rows; also called alanine scan variant T9A of MC-FA-010, Trx fusion; not shown: thioredoxin-A, His6 tag, S-tag and linkers of the pET-32-LibEx fusion (N-terminal carrier)
[6]
  Relative Bindung im Vergleich zu Trx-MC-FA-010 [%]: 29.9%
[7]
  Kd: 50.6 nM

B3: Trx-MC-FA-019 (designed binder)
chain: GKCPYSNWTAGRGPDCRRDSDCPGRCICRGNGYCG
modifications: disulfide 16-28, 22-34, 3-26; also: N-terminal Trx-His6-S-tag fusion carrier, not in chain
notes: the position follows from the order of the rows; also called alanine scan variant P10A of MC-FA-010, Trx fusion; not shown: thioredoxin-A, His6 tag, S-tag and linkers of the pET-32-LibEx fusion (N-terminal carrier)
[6]
  Relative Bindung im Vergleich zu Trx-MC-FA-010 [%]: 19.3%
[8]
  Kd: 78.7 nM

B4: Trx-MC-FA-0112 (designed binder)
chain: GKCPYSNWTPGRAPDCRRDSDCPGRCICRGNGYCG
modifications: disulfide 16-28, 22-34, 3-26; also: N-terminal Trx-His6-S-tag fusion carrier, not in chain
notes: the position follows from the order of the rows; also called alanine scan variant G13A of MC-FA-010, Trx fusion; not shown: Thioredoxin-A, His-tag (H6), S-tag and linker of the pET-32-LibEx fusion, N-terminal of the miniprotein
[6]
  Relative Bindung im Vergleich zu Trx-MC-FA-010 [%]: 6.98%
[9]
  Kd: 217 nM

B5: DOTA-(MC-FA-012)3 (designed binder)
chain 1: GACPYSNWTPGRGPDCRRDSDCPGRCICRGNGYCG
chain 2: GACPYSNWTPGRGPDCRRDSDCPGRCICRGNGYCG
chain 3: GACPYSNWTPGRGPDCRRDSDCPGRCICRGNGYCG
modifications: each of chains 1-3: N-terminal aminooxy group oxime-ligated to an oxidised serine of the anchor; three disulfides (cystine knot) per chain; anchor carries an N-terminal DOTA chelator
notes: Purchased from Pepscan; about 13000 Da; also called DOTA conjugated trimerized MC-FA-012; MC-FA-012 trimer; not shown: the anchor scaffold (N-terminal DOTA, three Lys-Ser units separated by GSGS linkers)
[10]
  times slower offrate compared to MC-FA-012: ~530 fold
[11]
  Kd: 0.0124 nM
  kon: 2.11e+07 M⁻¹ s⁻¹
[2]
  Kd: 0.249 nM
[12]
  IC50: 43.3 nM
